According to article PMC10958117, “G-site residue S67 is involved in the fungicide-degrading activity of a tau class glutathione S-transferase from Carica papaya” (The Journal of Biological Chemistry, 2024):

Assays:
[1] = substrate: N[C@@H](CCC(=O)N[C@@H](CS)C(=O)NCC(=O)O)C(=O)O; experiment: purified protein, by the assay type; design: GSH conjugation with chloronitrobenzene substrate, absorbance at 340 nm, Km for glutathione; details: pH 7.2; 37.0 °C
purified protein = substrate: CN(C)C(=S)SSC(=S)N(C)C; experiment: purified protein; format: biochemical, Carica papaya; details: G-site; S67 necessary for activity

B1: TCpGST (Carica papaya) (protein)
chain: MADEVVLLDFWPSPFGMRIRIALAEKGIHYEYKEENLRNKSPLLLQMNPVHKKIPVLIHNGKPICESLIQIQYIDEVWSDKAPLLPSDPYQRAQARFWADYVDKKMYEAGRRVWTTKGEEQEGAKKEFIEILKTLEGELGEKPYFGGESFGYVDLTFIPFYTWFSVYESFGKMSIEAECPKLFSWVKRCLEKESVSKSLPDQDKVYGFVLELRKALGI
notes: wild-type full-length ORF, C-terminal His6, pET-30a, E. coli BL21(DE3)
Km [1]: 30 ± 8.3 µM
Vmax [1]: 552 µM/min
kcat [1]: 0.197 ± 0.0169 s⁻¹
kcat/Km [1]: 6550 M⁻¹ s⁻¹

B2: tau class glutathione S-transferase from Carica papaya (TCpGST) (Carica papaya) (protein)
chain: MADEVVLLDFWPSPFGMRIRIALAEKGIHYEYKEENLRNKSPLLLQMNPVHKKIPVLIHNGKPICESLIQIQYIDEVWSDKAPLLPSDPYQRAQARFWADYVDKKMYEAGRRVWTTKGEEQEGAKKEFIEILKTLEGELGEKPYFGGESFGYVDLTFIPFYTWFSVYESFGKMSIEAECPKLFSWVKRCLEKESVSKSLPDQDKVYGFVLELRKALGI
notes: full-length ORF (657 bp), C-terminal His6, pET-30a, E. coli BL21(DE3), Ni-NTA purified
Km (purified protein): 148.4 ± 7 µM
